# B1: purified Egd2 (expressed in E. coli) (natural protein, S. cerevisiae, UniProt P38879 1-174, looked up)
# chain: MSAIPENANVTVLNKNEKKARELIGKLGLKQIPGIIRVTFRKKDNQIYAIEKPEVFRSAGGNYVVFGEAKVDNFTQKLAAAQQQAQASGIMPSNEDVATKSPEDIQADMQAAAEGSVNAAAEEDDEEGEVDAGDLNKDDIELVVQQTNVSKNQAIKALKAHNGDLVNAIMSLSK
# Molecular target: the molecule itself
# Test: cross-linking
protein,measurement,value
B1,stoichiometry N,2

# Reference: publication PMC4508901 (The Journal of Cell Biology, 2015)
